How the values were obtained:
Type in all cases: in vitro ADME, human
[1] = substrate: COc1c(O)cc2occ(-c3ccc(O)cc3)c(=O)c2c1O; experiment: Enzyme kinetics with recombinant CYP2E1; conditions: other: recombinant CYP2E1, mean ± SE, n = 3; 30.0 °C
Description: (§1) A series of concentrations (1–300 μM) of tectorigenin, irigenin, or irisflorentin were added to HLMs or recombinant enzymes. Nonlinear regression was performed on the substrate concentration and generation rate of metabolites to investigate the enzymatic kinetic characteristics of these components in the metabolic system. All experiments were carried out in triplicate.
A Waters AQUITY UPLC system (Waters, Milford, MA, United States) equipped with a Dikma ODS C18 column (150 × 4.6 mm, 5 μm) was used for separation at 30°C. The binary mobile phase consisted of A (an aqueous solution containing 0.1% acetic acid and 2 mM ammonium acetate) and B (acetonitrile) at a flow rate of 1 mL/min. […] The concentrations of the metabolites were calculated using a standard curve of the substrates.
GraphPad Prism software 5.0 was used to perform non-linear fitting between the metabolite generation rate (V) and substrate concentration [S]. The appropriateness of the enzyme kinetic model was determined using R ^2 and the Eadie-Hofstee fit. […] Intrinsic clearance (Clint) was calculated according to Equation 3 (for the Michaelis–Menten model) and Equation 4 (for the sigmoidal kinetics model). All data are expressed as mean ± Standard Error (SE). […]

[2] = substrate: COc1cc(-c2coc3cc(O)c(OC)c(O)c3c2=O)cc(O)c1OC; experiment: Enzyme kinetics with recombinant CYP2C19; conditions: other: recombinant CYP2C19, mean ± SE, n = 3; 30.0 °C
Description: as §1
(§2) A Waters AQUITY UPLC system (Waters, Milford, MA, United States) equipped with a Dikma ODS C18 column (150 × 4.6 mm, 5 μm) was used for separation at 30°C. The binary mobile phase consisted of A (an aqueous solution containing 0.1% acetic acid and 2 mM ammonium acetate) and B (acetonitrile) at a flow rate of 1 mL/min. The elution settings were as follows: 0 → 5 min: 10% B → 20% B; 5 min → 20 min: 20% B → 50% B; 20 min → 21 min: 50% B → 60% B; 21 min → 25 min: 60% B → 90% B; 25 min → 25.1 min 90%–10% B; 25.1 min → 30 min 10% B. Flow rate: 1 mL/min 260 nm was used as the detection wavelength. Calibration standard curves were generated using a reaction mixture containing tectorigenin, irigenin, or irisflorentin at a concentration range of 0.03–10 µM. The concentrations of the metabolites were calculated using a standard curve of the substrates.
(§3) GraphPad Prism software 5.0 was used to perform non-linear fitting between the metabolite generation rate (V) and substrate concentration [S]. The appropriateness of the enzyme kinetic model was determined using R ^2 and the Eadie-Hofstee fit. The maximum metabolic rate (Vmax) and Michaelis constant (Km) were obtained for kinetic processes that conformed to the Michaelis–Menten model (Equation 1). For kinetic processes that conform to the sigmoidal kinetics model (Equation 2), Vmax, Hill coefficient (n), and S50, concentrations at 50% Vmax were obtained. Intrinsic clearance (Clint) was calculated according to Equation 3 (for the Michaelis–Menten model) and Equation 4 (for the sigmoidal kinetics model). All data are expressed as mean ± Standard Error (SE). One - way analysis of variance was used to compare the differences between different groups. […]

[3] = substrate: COc1cc(-c2coc3cc4c(c(OC)c3c2=O)OCO4)cc(OC)c1OC; experiment: Enzyme kinetics with recombinant CYP1A2; conditions: other: recombinant CYP1A2, sigmoidal kinetics (S50), mean ± SE, n = 3; 30.0 °C
Description: as §1, §2, §3

B1: CYP2E1 (Homo sapiens) (protein)
chain: MSALGVTVALLVWAAFLLLVSMWRQVHSSWNLPPGPFPLPIIGNLFQLELKNIPKSFTRLAQRFGPVFTLYVGSQRMVVMHGYKAVKEALLDYKDEFSGRGDLPAFHAHRDRGIIFNNGPTWKDIRRFSLTTLRNYGMGKQGNESRIQREAHFLLEALRKTQGQPFDPTFLIGCAPCNVIADILFRKHFDYNDEKFLRLMYLFNENFHLLSTPWLQLYNNFPSFLHYLPGSHRKVIKNVAEVKEYVSERVKEHHQSLDPNCPRDLTDCLLVEMEKEKHSAERLYTMDGITVTVADLFFAGTETTSTTLRYGLLILMKYPEIEEKLHEEIDRVIGPSRIPAIKDRQEMPYMDAVVHEIQRFITLVPSNLPHEATRDTIFRGYLIPKGTVVVPTLDSVLYDNQEFPDPEKFKPEHFLNENGKFKYSDYFKPFSTGKRVCAGEGLARMELFLLLCAILQHFNLKPLVDPKDIDLSPIHIGFGCIPPRYKLCVIPRS
notes: purchased CYPEX (Dundee, United Kingdom)
In the case of B1, the K0.5 [1] is reported as 130.4 ± 18.8 µM and the kcat [1] is reported as 0.427 ± 0.0267 s⁻¹.

B2: CYP2C19 (Homo sapiens) (protein)
chain: MDPFVVLVLCLSCLLLLSIWRQSSGRGKLPPGPTPLPVIGNILQIDIKDVSKSLTNLSKIYGPVFTLYFGLERMVVLHGYEVVKEALIDLGEEFSGRGHFPLAERANRGFGIVFSNGKRWKEIRRFSLMTLRNFGMGKRSIEDRVQEEARCLVEELRKTKASPCDPTFILGCAPCNVICSIIFQKRFDYKDQQFLNLMEKLNENIRIVSTPWIQICNNFPTIIDYFPGTHNKLLKNLAFMESDILEKVKEHQESMDINNPRDFIDCFLIKMEKEKQNQQSEFTIENLVITAADLLGAGTETTSTTLRYALLLLLKHPEVTAKVQEEIERVIGRNRSPCMQDRGHMPYTDAVVHEVQRYIDLIPTSLPHAVTCDVKFRNYLIPKGTTILTSLTSVLHDNKEFPNPEMFDPRHFLDEGGNFKKSNYFMPFSAGKRICVGEGLARMELFLFLTFILQNFNLKSLIDPKDLDTTPVVNGFASVPPFYQLCFIPV
notes: as for B1
For B2, the K0.5 [2] was 31.7 ± 2.4 µM, the kcat [2] was 0.255 ± 0.005 s⁻¹ and the kcat/Km [2] was 8330 M⁻¹ s⁻¹.

B3: CYP1A2 (Homo sapiens) (protein)
chain: MALSQSVPFSATELLLASAIFCLVFWVLKGLRPRVPKGLKSPPEPWGWPLLGHVLTLGKNPHLALSRMSQRYGDVLQIRIGSTPVLVLSRLDTIRQALVRQGDDFKGRPDLYTSTLITDGQSLTFSTDSGPVWAARRRLAQNALNTFSIASDPASSSSCYLEEHVSKEAKALISRLQELMAGPGHFDPYNQVVVSVANVIGAMCFGQHFPESSDEMLSLVKNTHEFVETASSGNPLDFFPILRYLPNPALQRFKAFNQRFLWFLQKTVQEHYQDFDKNSVRDITGALFKHSKKGPRASGNLIPQEKIVNLVNDIFGAGFDTVTTAISWSLMYLVTKPEIQRKIQKELDTVIGRERRPRLSDRPQLPYLEAFILETFRHSSFLPFTIPHSTTRDTTLNGFYIPKKCCVFVNQWQVNHDPELWEDPSEFRPERFLTADGTAINKPLSEKMMLFGMGKRRCIGEVLAKWEIFLFLAILLQQLEFSVPPGVKVDLTPIYGLTMKHARCEHVQARLRFSIN
notes: as for B1
B3 showed a K0.5 [3] of 38.5 ± 2.5 µM, a kcat [3] of 1.77 ± 0.0467 s⁻¹ and a kcat/Km [3] of 25000 M⁻¹ s⁻¹.

Source: PMC11850249, “Typical and atypical metabolic characteristics of three iridaceae isoflavone components: in vitro and in silico studies” (Frontiers in Pharmacology, 2025)
